Assay: yeast display, Sf9 membrane polyspecificity reagent, FACS + sequencing; frameworks hold sequencing errors
Outline: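 Genes from sorted yeast were amplified by colony PCR, read by MiSeq 2 × 250 sequencing and filtered on CDR length. These cells carried a synthetic nanobody library in Saccharomyces cerevisiae BJ5465 and were sorted by FACS into low and high (top ~1%) gates on anti-HA and streptavidin fluorescence. Polyreactivity is labelled according to the gate of origin.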
With “QVQLVESGGGLVQAGGSLRLSCAASGSTFYFNAMGWYRQAPGKERELVAGITYSGDSTYYADSVKGRFTISRDNAKNTVYLQMNSLKPEDTAVYYCAADVDYDLDGDYWGQGTQVTVSS” the “polyreactivity (PSR sort gate)” value was “low polyreactivity”. With “QVQLVESGGGLVQAGGSLRLSCAASGSTFYFNTMGWYRQAPGKERELVAAIRRSSGSTYYADSVKGRFTISRDNAKNTVYLQMNSLKPEDTAVYYCAADNAVTRYGRIDRDYWGQGTQVTVSS” the “polyreactivity (PSR sort gate)” value was “low polyreactivity”. For “QVQLVESGGGLVQAGGSLRLSCAASGSTFYFYAMGWYRQAPGKEREFVARISNRDGSTYYADSVKGRFTISRDNAKNTVYLQMNSLKPEDTAVYYCAVKQRASHYPYYSWGQGTQVTVSS”, the “polyreactivity (PSR sort gate)” value was “high polyreactivity”. In the case of “QVQLVESGGGLVQAGGSLRLSCAASGSTFYFYTMGWYRQAPGKERELVAAISQDGGSTYYADSVKGRFTISRDNAKNTVYLQMNSLKPEDTAVYYCAADKRGTVYLSSFWMDYWGQGTQVTVSS”, the “polyreactivity (PSR sort gate)” value is reported as “low polyreactivity”. With “QVQLVESGGGLVQAGGSLRLSCAASGSTFYFYVMGWYRQAPGKERELVAAITWSGGRTSYADSVKGRFTISRDNAKNTVYLQMNSLKPEDTAVYYCAKDLQNSSHPSRYDYWGQGTQVTVSS” the “polyreactivity (PSR sort gate)” value was “low polyreactivity”. With “QVQLVESGGGLVQAGGSLRLSCAASGSTFYGYAMGWYRQAPGKERELVAAITLIGTSTYYADSVKCRFTISRDNAKNTVYLQMNSLKPEDTAVYYCAAEISYGYGYWGQGTQVTVSS” the “polyreactivity (PSR sort gate)” value was “low polyreactivity”. For “QVQLVESGGGLVQAGGSLRLSCAASGSTFYGYAMGWYRQAPGKERELVAGITSAGSTYYADSVKGRFTISRDNAKNTVYLQMNSLKPEDTAVYYCAYHGAGYYYWGQGTQVTVSS”, the “polyreactivity (PSR sort gate)” value was “high polyreactivity”. In the case of “QVQLVESGGGLVQAGGSLRLSCAASGSTFYGYGMGWYRQAPGKERELVAAITGSGDTTYYADSVKGRFTISRDNAKNSVYLQMNSLKPEDTAVYYCNARWHAEYDYWGQGTQVTVSS”, the “polyreactivity (PSR sort gate)” value is reported as “low polyreactivity”. In the case of “QVQLVESGGGLVQAGGSLRLSCAASGSTFYGYGMGWYRQAPGKERELVAAITGSGDTTYYADSVKGRFTISRDNAKNTVYLQMNSLKPEDTAVYYCNARWLAEYDYWGQGTQVTVSS”, the “polyreactivity (PSR sort gate)” value is reported as “low polyreactivity”. In the case of “QVQLVESGGGLVQAGGSLRLSCAASGSTFYGYTMGWYRQAPGKERELVAAISSSGSSTYYADSVKGRFTISRDNAKNTVYLQMNSLKPEDTAVYYCAAATRVPGHGSTSYYYWGQGTQVTVSS”, the “polyreactivity (PSR sort gate)” value is reported as “high polyreactivity”. With “QVQLVESGGGLVQAGGSLRLSCAASGSTFYHNVKGWYRQAPWKERELVASIDTGDSTNYADTVKGRFSISRDNAKKTVYLQMNSLKPEDTAVYYCNADSYPALNKRGYEYWGQGTQVTVSS” the “polyreactivity (PSR sort gate)” value was “low polyreactivity”. For “QVQLVESGGGLVQAGGSLRLSCAASGSTFYHYAMGWYRQAPGKERELVAAISWSGGSTYYADSVKGSFTISRDNAKNTVYLLMYSLKPEDTAVYYCNALLSGLTSTEYDYWGQGTQVTVSS”, the “polyreactivity (PSR sort gate)” value was “high polyreactivity”. For “QVQLVESGGGLVQAGGSLRLSCAASGSTFYHYTMGWYRQAPGKERELVARISRSGGSTYYADSVKGRFTISRDNAKNTVYLQMNSLKPEDTAGYYCNKGSFYGSSQVGGTGYDYWGQGTQVTVSS”, the “polyreactivity (PSR sort gate)” value was “low polyreactivity”. For “QVQLVESGGGLVQAGGSLRLSCAASGSTFYHYVMGWYRQAPGKERELGAAISWRGGRTYYADSVKGRFTISRDTAKNTVYLQMNSLKPEDTAVYYCARAYFQPSYYGVEYNYWGQGTQVTVSS”, the “polyreactivity (PSR sort gate)” value was “high polyreactivity”. In the case of “QVQLVESGGGLVQAGGSLRLSCAASGSTFYINAMGWYRQAPGKEREFVAAITSRGGSTYYADSVKGRFTISRDNAKNTVYLQMNSLKPEDTAVYYCAARNFLSRRGTYDYWGQGTQVTVSS”, the “polyreactivity (PSR sort gate)” value is reported as “high polyreactivity”. With “QVQLVESGGGLVQAGGSLRLSCAASGSTFYINAMGWYRQAPGKERELVAAISWSTTITYYADSVKGRFTISRDNAKNTVYLQMNSLKPEDTAVYYCAAEEEYWDYSGGGYWGQGTQVTVSS” the “polyreactivity (PSR sort gate)” value was “high polyreactivity”. In the case of “QVQLVESGGGLVQAGGSLRLSCAASGSTFYIYAMGWYRQAPGKERELVAAITSGGNTYYADSVKGRFTISRDNAKNTVYLQMNSLKPEDTAVYYCAAELYDRWSRMDYWGQGTQVTVSS”, the “polyreactivity (PSR sort gate)” value is reported as “low polyreactivity”. With “QVQLVESGGGLVQAGGSLRLSCAASGSTFYIYAMGWYRQAPGKERELVAAITWSGGRTFYADSVKGRFTISRDNAKNTVYLHMNSLKPEDTAVYFCSARFWSDKTGSRYYYWGQGTQVTVSS” the “polyreactivity (PSR sort gate)” value was “high polyreactivity”. With “QVQLVESGGGLVQAGGSLRLSCAASGSTFYKYAMGWYRPAPGKERELVAAISRGGSTYYADSVKGRFTISRDNAKNTVYLQMNSLKPEDTAVYYCAALYGLGRPQDSTFLFDYWGQGTQVTVSS” the “polyreactivity (PSR sort gate)” value was “low polyreactivity”. With “QVQLVESGGGLVQAGGSLRLSCAASGSTFYLNAMGWYRQAPGKERELVAAINGSGGSTYADSVKGRFTISRDNAKNTVYLQMNSLKPEDTAVYYCAADGTGYPGYSYPGNDYDYWGQGTQVTVSS” the “polyreactivity (PSR sort gate)” value was “low polyreactivity”. For “QVQLVESGGGLVQAGGSLRLSCAASGSTFYLNAMGWYRQAPGKERELVAAITVSGGSTYYADSVKGRFTISRDNAKNTVYLQMNSLKPEDTAVYYCARELLSPTYPRWYYYWGQGTQVTVSS”, the “polyreactivity (PSR sort gate)” value was “low polyreactivity”. For “QVQLVESGGGLVQAGGSLRLSCAASGSTFYLNDMGWYRQAPGKERELVAAIDWSGGSTYYADSVKGRFTISRDNAKNTVYLQMNSLNPEDTAVYYCAARLVYEWRRLDYFIAWDYWGQGTQVTVSS”, the “polyreactivity (PSR sort gate)” value was “low polyreactivity”. In the case of “QVQLVESGGGLVQAGGSLRLSCAASGSTFYLYAMGWYRQAPGKERELVADISWDGDSTYYADSVKGRFTISRDNAKNTVYLQMNSLKPEDTAVYYCAADYFYYYEQYLWYTYDYWGQGTQVTVSS”, the “polyreactivity (PSR sort gate)” value is reported as “high polyreactivity”. With “QVQLVESGGGLVQAGGSLRLSCAASGSTFYLYAMGWYRQAPGKERELVASITYSGASTYYADSVKGRFTISRDNAKNTVYLQMNSQKPEDTAVYYCAADQRGWFAVGSQRKYNYWGQGTQVTVSS” the “polyreactivity (PSR sort gate)” value was “low polyreactivity”. In the case of “QVQLVESGGGLVQAGGSLRLSCAASGSTFYLYGMGWYRQAPGKERELVAAITYSGGSTYYADSVKGRFTISRDNAKNTVYLQMNSLKPEDTAVYYCNARSQWRSSRFYYWGQGTQVTVPS”, the “polyreactivity (PSR sort gate)” value is reported as “high polyreactivity”. For “QVQLVESGGGLVQAGGSLRLSCAASGSTFYNAMGWYIQAPGKERELVAGISRNGGSTRYADSVKGRFTISRDNAKNTVYLQSHSQKPEDTAVSYCAAGYYDYGWDYANDYWGQGTQVTVSS”, the “polyreactivity (PSR sort gate)” value was “low polyreactivity”. With “QVQLVESGGGLVQAGGSLRLSCAASGSTFYNYAMGWCRLAPGKERELVAATSSGGSTNYADSVKGRFTISRDNAKNTVFLQMISLKPEDNAVYYCARRHRVYPSRIGHDYWGQGTQVTVSS” the “polyreactivity (PSR sort gate)” value was “low polyreactivity”. For “QVQLVESGGGLVQAGGSLRLSCAASGSTFYNYAMGWYRQAPGKERELVAAISSGGGITYYADSVKGRFTISRDNAKNTVYLQMNSLKPEDTAVYYCNARRKYLGYNYWGQGSQVTVSS”, the “polyreactivity (PSR sort gate)” value was “high polyreactivity”. For “QVQLVESGGGLVQAGGSLRLSCAASGSTFYNYAMGWYRQAPGKERELVAAISSGGGITYYADSVKGRFTISRDNAKNTVYLQMNSLKPEDTAVYYCNVVNYYPKGNNRAQYWFNYWGQGTQVNVSS”, the “polyreactivity (PSR sort gate)” value was “high polyreactivity”. For “QVQLVESGGGLVQAGGSLRLSCAASGSTFYPNAMGWYRQAPGKEREFVAAITWSGGRTYYADSVKGRFTISRDNAKNTVYLLMNSLKPEDTAVYYCAVGGNSRRYWGQGTQVTVSS”, the “polyreactivity (PSR sort gate)” value was “high polyreactivity”. In the case of “QVQLVESGGGLVQAGGSLRLSCAASGSTFYPNAMGWYRQAPGKERELVAAISRGTRTKYADSVKGRFTISRDNAKNTVYLQMNSLKPEDTAVYYCAKRYYGSPQLRYYYWGQGTQVTVSS”, the “polyreactivity (PSR sort gate)” value is reported as “high polyreactivity”. With “QVQLVESGGGLVQAGGSLRLSCAASGSTFYPNAMGWYRQAPGKERELVAAISWSGGRTYYADSVKGRFTISRDNAKNTVYLQMNSLKPEDTAVYYCNAARYPSSWYYKLDYWGQGTQVTVSS” the “polyreactivity (PSR sort gate)” value was “high polyreactivity”. In the case of “QVQLVESGGGLVQAGGSLRLSCAASGSTFYPYAMGGYRQAPGKERELVARITQNGGSTYYADSVKGRFKISRDNAKNPVYLQMNSLKPEDTAVYYCADRWISVLSYGKYDYCGQGTQVTVSS”, the “polyreactivity (PSR sort gate)” value is reported as “high polyreactivity”. With “QVQLVESGGGLVQAGGSLRLSCAASGSTFYPYAMGWYRQAPGKERELVAAISSGGSTNYADSVKGRFTISRDNAKNTVYLQMNSLKPEDTAVYYCAAEDWSLYDYGDRLWYSPYYYWGQGTQVTVSS” the “polyreactivity (PSR sort gate)” value was “high polyreactivity”. With “QVQLVESGGGLVQAGGSLRLSCAASGSTFYPYAMGWYRQAPGKERELVAAISSGGSTSYADSVKGRFTISRDNAKNTFYLQMNSLKPEDTAVYYCNASSPGAVPVYDYDYWGQGTQVTVSS” the “polyreactivity (PSR sort gate)” value was “low polyreactivity”. For “QVQLVESGGGLVQAGGSLRLSCAASGSTFYPYAMGWYRQAPGKERELVAAISSSGGSTYYADSVKGRFTISRDNAKNTVYLQMNSLKPEDTAVYYCNADVHSQYDYWGQGTQVTVSS”, the “polyreactivity (PSR sort gate)” value was “low polyreactivity”. In the case of “QVQLVESGGGLVQAGGSLRLSCAASGSTFYPYAMGWYRQATGKERELVAAISYSGGSKYYADSVKGRFTISRDNAKNTVYLQMNSLKPEDTAVYYCAAYYRVYGASYDYWGQVTQVTVSS”, the “polyreactivity (PSR sort gate)” value is reported as “high polyreactivity”. For “QVQLVESGGGLVQAGGSLRLSCAASGSTFYPYTMGWYRQAPGKERELVASISTTGGSTNYADSVKGRFTISRDNAKNTVYLQMNSLKPEDTAVYYCAARSNYTRRLYYYYWGLGTQVTVSS”, the “polyreactivity (PSR sort gate)” value was “high polyreactivity”. In the case of “QVQLVESGGGLVQAGGSLRLSCAASGSTFYQNAMGWYRQAPGKERELVAAISGGSDTYYADSVKGRFTISRDNAKNTVYLQMNSLKPEDTAFYYCAADVASSEGKSWTLKDEYDYWGQGTQVTVSS”, the “polyreactivity (PSR sort gate)” value is reported as “low polyreactivity”. In the case of “QVQLVESGGGLVQAGGSLRLSCAASGSTFYQSVMGWYRQAPGKERELVADITNGGSTYYADSVKGRFTISRDNAKNTVYLQMNSLKPEDTAVYYCAADGGYYWYTYWYGGLYYWGQGTQVTVSS”, the “polyreactivity (PSR sort gate)” value is reported as “high polyreactivity”. With “QVQLVESGGGLVQAGGSLRLSCAASGSTFYRNAMGWYRQAPGKEREFVAAISFRGGGTYADSVKGRFTISRDNAKNTVYLQMNSLKPEDTAVYYCAADYSVYWLDYGYWGQGTQVTVSS” the “polyreactivity (PSR sort gate)” value was “low polyreactivity”. In the case of “QVQLVESGGGLVQAGGSLRLSCAASGSTFYRNAMGWYRQAPGKERELVAAISRGGSTYYADSVKGRFTISRDNAKNTVYLQMNSLKPEDTAVYYCNTDVNYAGYGWYYYWGQGTQVTVSS”, the “polyreactivity (PSR sort gate)” value is reported as “high polyreactivity”. In the case of “QVQLVESGGGLVQAGGSLRLSCAASGSTFYRNAMGWYRQAPGKERELVAAITSGGSSTYYADSVKVRFTISRDNAKNTVYLQMNSLKPEDTAVYYCAAEPGIYYYWGQGTQVTVSS”, the “polyreactivity (PSR sort gate)” value is reported as “low polyreactivity”.
